From PMC6436931, “Activation of the Endonuclease that Defines mRNA 3′ Ends Requires Incorporation into an 8-Subunit Core Cleavage and Polyadenylation Factor Complex” (Molecular Cell, 2019) come the findings set out here.

T1: Hrp1 (CF IB) (Saccharomyces cerevisiae, UniProt Q99383 1-534)
T1 sequence: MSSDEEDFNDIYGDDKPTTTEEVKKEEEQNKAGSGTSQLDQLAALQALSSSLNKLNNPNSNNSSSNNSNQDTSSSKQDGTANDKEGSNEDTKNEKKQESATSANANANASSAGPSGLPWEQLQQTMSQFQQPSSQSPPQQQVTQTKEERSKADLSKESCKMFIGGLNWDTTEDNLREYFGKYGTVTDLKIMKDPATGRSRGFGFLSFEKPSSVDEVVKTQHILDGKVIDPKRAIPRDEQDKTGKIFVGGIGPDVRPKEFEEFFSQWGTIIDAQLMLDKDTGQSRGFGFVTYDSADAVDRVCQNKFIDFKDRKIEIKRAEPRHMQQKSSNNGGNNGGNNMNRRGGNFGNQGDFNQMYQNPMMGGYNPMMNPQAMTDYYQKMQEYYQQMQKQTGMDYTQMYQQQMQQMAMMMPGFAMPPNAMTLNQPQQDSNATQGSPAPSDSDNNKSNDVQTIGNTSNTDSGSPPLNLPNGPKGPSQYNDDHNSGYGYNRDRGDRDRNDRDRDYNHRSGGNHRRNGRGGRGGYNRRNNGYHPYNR

T2: Cft2 (Saccharomyces cerevisiae, UniProt Q12102 1-859)
T2 sequence: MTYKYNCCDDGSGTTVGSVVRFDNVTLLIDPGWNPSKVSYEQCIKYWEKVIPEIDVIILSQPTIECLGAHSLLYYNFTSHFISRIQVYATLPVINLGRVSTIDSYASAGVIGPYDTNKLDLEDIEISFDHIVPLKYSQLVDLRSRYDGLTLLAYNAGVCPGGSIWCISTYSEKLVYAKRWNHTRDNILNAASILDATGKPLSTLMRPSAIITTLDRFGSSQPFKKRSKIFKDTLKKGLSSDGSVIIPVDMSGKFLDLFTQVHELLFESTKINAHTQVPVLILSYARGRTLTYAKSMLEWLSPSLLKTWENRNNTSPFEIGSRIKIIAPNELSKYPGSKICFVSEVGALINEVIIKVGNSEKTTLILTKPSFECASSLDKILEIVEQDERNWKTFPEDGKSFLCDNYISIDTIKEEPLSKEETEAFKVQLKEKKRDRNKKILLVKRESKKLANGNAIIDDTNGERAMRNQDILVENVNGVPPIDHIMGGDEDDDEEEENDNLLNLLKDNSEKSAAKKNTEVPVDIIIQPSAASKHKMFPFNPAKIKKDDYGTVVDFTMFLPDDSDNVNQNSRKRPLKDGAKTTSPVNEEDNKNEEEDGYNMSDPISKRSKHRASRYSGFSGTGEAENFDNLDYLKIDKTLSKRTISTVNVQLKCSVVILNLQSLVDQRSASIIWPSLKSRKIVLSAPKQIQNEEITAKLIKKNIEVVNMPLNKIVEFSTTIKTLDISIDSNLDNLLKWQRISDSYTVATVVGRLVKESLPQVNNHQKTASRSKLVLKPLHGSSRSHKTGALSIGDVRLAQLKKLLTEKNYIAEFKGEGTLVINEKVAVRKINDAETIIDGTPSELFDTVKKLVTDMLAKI

B1: Rna14-Rna15 complex (6H-Rna14-Rna15) (complex, S. cerevisiae)
chain 1: MSSSTTPDLLYPSADKVAEPSDNIHGDELRLRERIKDNPTNILSYFQLIQYLETQESYAKVREVYEQFHNTFPFYSPAWTLQLKGELARDEFETVEKILAQCLSGKLENNDLSLWSTYLDYIRRKNNLITGGQEARAVIVKAFQLVMQKCAIFEPKSSSFWNEYLNFLEQWKPFNKWEEQQRIDMLREFYKKMLCVPFDNLEKMWNRYTQWEQEINSLTARKFIGELSAEYMKARSLYQEWLNVTNGLKRASPINLRTANKKNIPQPGTSDSNIQQLQIWLNWIKWERENKLMLSEDMLSQRISYVYKQGIQYMIFSAEMWYDYSMYISENSDRQNILYTALLANPDSPSLTFKLSECYELDNDSESVSNCFDKCTQTLLSQYKKIASDVNSGEDNNTEYEQELLYKQREKLTFVFCVYMNTMKRISGLSAARTVFGKCRKLKRILTHDVYVENAYLEFQNQNDYKTAFKVLELGLKYFQNDGVYINKYLDFLIFLNKDSQIKTLFETSVEKVQDLTQLKEIYKKMISYESKFGNLNNVYSLEKRFFERFPQENLIEVFTSRYQIQNSNLIKKLELTYMYNEEEDSYFSSGNGDGHHGSYNMSSSDRKRLMEETGNNGNFSNKKFKRDSELPTEVLDLLSVIPKRQYFNTNLLDAQKLVNFLNDQVEIPTVESTKSG
chain 2: MNRQSGVNAGVQNNPPSRVVYLGSIPYDQTEEQILDLCSNVGPVINLKMMFDPQTGRSKGYAFIEFRDLESSASAVRNLNGYQLGSRFLKCGYSSNSDISGVSQQQQQQYNNINGNNNNNGNNNNNSNGPDFQNSGNANFLSQKFPELPSGIDVNINMTTPAMMISSELAKKPKEVQLKFLQKFQEWTRAHPEDAVSLLELCPQLSFVTAELLLTNGICKVDDLIPLASRPQEEASATNNNSVNEVVDPAVLNKQKELLKQVLQLNDSQISILPDDERMAIWDLKQKALRGEFGAF
notes: Rna14, S. cerevisiae; Rna15, S. cerevisiae; The pull-down methods call the prey 'untagged' though the construct carries a His6 tag; also called Rna14–15; source: E. coli BL21 Star (DE3), purified as described previously (Gordon et al., 2011)

Sequence of Pap1 (P29468 whole entry): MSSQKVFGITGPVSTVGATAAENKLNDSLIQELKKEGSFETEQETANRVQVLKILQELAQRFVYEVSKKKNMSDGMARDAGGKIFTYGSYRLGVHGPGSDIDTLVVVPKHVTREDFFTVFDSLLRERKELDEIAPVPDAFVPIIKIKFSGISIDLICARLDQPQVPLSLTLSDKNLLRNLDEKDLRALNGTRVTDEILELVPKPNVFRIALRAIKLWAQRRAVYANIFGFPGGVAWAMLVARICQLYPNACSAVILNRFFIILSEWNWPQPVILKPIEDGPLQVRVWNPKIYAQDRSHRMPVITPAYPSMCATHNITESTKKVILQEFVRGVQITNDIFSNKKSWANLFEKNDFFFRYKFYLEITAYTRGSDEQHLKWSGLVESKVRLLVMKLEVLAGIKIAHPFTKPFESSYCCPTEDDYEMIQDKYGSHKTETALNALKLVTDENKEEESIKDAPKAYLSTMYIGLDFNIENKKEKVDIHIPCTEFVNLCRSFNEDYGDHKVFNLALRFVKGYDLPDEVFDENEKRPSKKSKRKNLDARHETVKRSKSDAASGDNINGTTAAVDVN

The first data set has as its target T1, Hrp1 (CF IB). The experiment in a line: EMSA; EMSA: 50 nM RNA, 0.25-4.0 uM protein, protein diluted in 10 mM HEPES pH 7.9, 150 mM NaCl, 0.5 mM Mg(OAc)2, plus 1x loading dye (orange G, glycerol, EDTA); 30 min on ice; native 6% acrylamide/TBE PAGE. The following applies: protein: recombinant; tags: 6H (6H-Hrp1); label: 5'-FAM. (A gel shift assay detects complexes by their altered migration in electrophoresis.)
With GGGGGGGGGGGGGGG (ssRNA) [G15], the binding result is reported as “binds”.

Turning to AAGAACGUUAUUUAUAUUUCAAAUUUUUCUUUUUU (ssRNA) [CYC1d EMSA probe], the binding result is listed as “binds”.

UUUUUUUUUUUUUUU (ssRNA) [U15]: the binding result is “binds”.

CCCCCCCCCCCCCCC (ssRNA) [C15]: the binding result was “no binding”.

Take CGUUAUUUAUAUUUCAAAUUUUUCU (ssRNA) [CYC1f EMSA probe]: the binding result is on record as “binds”.

The next data set concerns the target Pap1 (Saccharomyces cerevisiae, UniProt P29468 1-568). The description is as above. Conditions: protein: recombinant; tags: SII (Pap1-SII) when alone; untagged in CPFpol and CPFcore; label: 5'-FAM.
For the molecule GGGGGGGGGGGGGGG (ssRNA) [G15], the binding result was “no binding”.

In the case of AAGAACGUUAUUUAUAUUUCAAAUUUUUCUUUUUU (ssRNA) [CYC1d EMSA probe], the binding result is reported as “no binding”.

With AAAAAAAAAAAAAAA (ssRNA) [A15], the binding result is “no binding”.

With UUUUUUUUUUUUUUU (ssRNA) [U15], the binding result is given as “no binding”.

As for CCCCCCCCCCCCCCC (ssRNA) [C15], the binding result is “no binding”.

For the molecule CGUUAUUUAUAUUUCAAAUUUUUCU (ssRNA) [CYC1f EMSA probe], the binding result is “no binding”.

A further data set addresses T2, Cft2. The data set is described as above. Conditions: protein: recombinant; tags: SII (Cft2-SII) when alone; untagged in CPFpol+Cft2 and CPFcore; label: 5'-FAM.
For the molecule GGGGGGGGGGGGGGG (ssRNA) [G15], the binding result was “binds”.

With AAGAACGUUAUUUAUAUUUCAAAUUUUUCUUUUUU (ssRNA) [CYC1d EMSA probe], the binding result is given as “binds”.

As to AAAAAAAAAAAAAAA (ssRNA) [A15], the binding result is “no binding”.

UUUUUUUUUUUUUUU (ssRNA) [U15]: the binding result was “no binding”.

For CCCCCCCCCCCCCCC (ssRNA) [C15], the binding result was “no binding”.

In the case of CGUUAUUUAUAUUUCAAAUUUUUCU (ssRNA) [CYC1f EMSA probe], the binding result is “binds”.

For the next data set, the target named is T3, CPFpol: Cft1-Pfs2_(-3C-SII)-Yth1_(-3C-8H)-Fip1-Pap1 (S. cerevisiae, UniProt Q06632 1-1357; P42841 1-465; Q06102 1-208; P45976 1-327; P29468 1-568).
T3 construct: Cft1, S. cerevisiae; Pfs2, S. cerevisiae; Yth1, S. cerevisiae; Fip1, S. cerevisiae; Pap1, S. cerevisiae; also called polymerase module; source: Sf9, purified as described previously (Casañal et al., 2017); not shown: StrepII, C-terminal, kept; copies: + + + +
In words: pull-down; Strep-tagged bait proteins and complexes (100 μL at 1.5 μM) immobilised on Streptactin beads; prey CF IA, CF IB, Rna14-Rna15 or Pcf11-Clp1 (20 μL at 4.0 μM) bound 60 min at 4°C; 10 mM HEPES pH 7.9, 150 mM NaCl, 0.5 mM Mg(OAc)2, 0.05% Tween-20; SDS-PAGE, InstantBlue. The following applies: both partners purified.
Regarding B1, the binding result was “binds”.

The target of another data set is T4, CPFpol (no Pap1): Cft1-Pfs2_(-3C-SII)-Yth1_(-3C-8H)-Fip1 (S. cerevisiae, UniProt Q06632 1-1357; P42841 1-465; Q06102 1-208; P45976 1-327).
T4 construct: Cft1, S. cerevisiae; Pfs2, S. cerevisiae; Yth1, S. cerevisiae; Fip1, S. cerevisiae; also called polymerase module without Pap1; source: Sf9, purified as described previously (Casañal et al., 2017); not shown: StrepII, C-terminal, kept; copies: + + +
T4 sequence (Q06632 whole entry, chain 1 of 4): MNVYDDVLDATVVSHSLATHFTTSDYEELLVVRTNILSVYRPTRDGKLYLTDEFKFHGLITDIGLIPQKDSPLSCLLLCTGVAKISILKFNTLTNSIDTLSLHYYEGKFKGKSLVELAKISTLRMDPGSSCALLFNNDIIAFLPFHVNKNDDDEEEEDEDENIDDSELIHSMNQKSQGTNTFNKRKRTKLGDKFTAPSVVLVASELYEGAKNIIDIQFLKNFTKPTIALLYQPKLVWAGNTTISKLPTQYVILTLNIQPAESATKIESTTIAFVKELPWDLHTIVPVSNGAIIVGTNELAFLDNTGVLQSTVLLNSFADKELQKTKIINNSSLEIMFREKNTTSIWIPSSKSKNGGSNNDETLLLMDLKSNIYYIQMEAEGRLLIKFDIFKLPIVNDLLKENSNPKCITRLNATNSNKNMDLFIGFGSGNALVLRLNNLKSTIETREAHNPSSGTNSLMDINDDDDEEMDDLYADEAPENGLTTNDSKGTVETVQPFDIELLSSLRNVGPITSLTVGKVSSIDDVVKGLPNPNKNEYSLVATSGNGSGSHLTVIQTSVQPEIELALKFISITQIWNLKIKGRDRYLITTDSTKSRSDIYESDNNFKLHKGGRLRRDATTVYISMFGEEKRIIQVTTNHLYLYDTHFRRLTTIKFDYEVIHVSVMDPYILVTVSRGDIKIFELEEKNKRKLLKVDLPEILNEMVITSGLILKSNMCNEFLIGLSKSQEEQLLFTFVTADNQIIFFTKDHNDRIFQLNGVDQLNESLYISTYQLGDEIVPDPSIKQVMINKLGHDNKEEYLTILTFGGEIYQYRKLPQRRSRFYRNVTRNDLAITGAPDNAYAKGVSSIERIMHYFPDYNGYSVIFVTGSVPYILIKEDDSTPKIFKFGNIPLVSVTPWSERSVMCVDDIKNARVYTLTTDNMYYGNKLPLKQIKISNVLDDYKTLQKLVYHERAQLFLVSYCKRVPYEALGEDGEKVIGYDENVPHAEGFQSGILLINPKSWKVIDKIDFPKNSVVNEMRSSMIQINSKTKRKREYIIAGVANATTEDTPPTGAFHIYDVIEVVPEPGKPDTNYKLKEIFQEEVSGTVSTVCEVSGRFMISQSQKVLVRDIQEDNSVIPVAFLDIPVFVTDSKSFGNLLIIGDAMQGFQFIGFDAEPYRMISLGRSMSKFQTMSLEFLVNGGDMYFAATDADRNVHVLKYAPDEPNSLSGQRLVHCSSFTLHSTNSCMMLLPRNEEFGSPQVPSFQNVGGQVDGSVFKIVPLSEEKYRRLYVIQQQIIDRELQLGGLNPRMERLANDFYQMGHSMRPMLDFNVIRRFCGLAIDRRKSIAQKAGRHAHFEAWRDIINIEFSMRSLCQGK
T4 sequence (P42841 whole entry, chain 2 of 4): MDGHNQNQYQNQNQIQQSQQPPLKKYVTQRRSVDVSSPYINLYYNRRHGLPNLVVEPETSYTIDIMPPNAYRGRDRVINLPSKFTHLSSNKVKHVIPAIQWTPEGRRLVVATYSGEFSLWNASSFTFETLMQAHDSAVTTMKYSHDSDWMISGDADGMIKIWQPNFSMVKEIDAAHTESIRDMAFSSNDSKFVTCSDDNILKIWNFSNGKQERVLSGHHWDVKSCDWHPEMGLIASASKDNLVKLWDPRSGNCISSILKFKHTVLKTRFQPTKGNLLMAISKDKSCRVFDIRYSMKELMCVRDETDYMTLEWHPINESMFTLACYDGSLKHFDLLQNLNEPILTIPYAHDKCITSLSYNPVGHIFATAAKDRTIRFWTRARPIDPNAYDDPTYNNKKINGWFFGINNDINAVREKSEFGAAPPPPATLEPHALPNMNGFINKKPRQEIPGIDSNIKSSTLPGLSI
T4 sequence (Q06102 whole entry, chain 3 of 4): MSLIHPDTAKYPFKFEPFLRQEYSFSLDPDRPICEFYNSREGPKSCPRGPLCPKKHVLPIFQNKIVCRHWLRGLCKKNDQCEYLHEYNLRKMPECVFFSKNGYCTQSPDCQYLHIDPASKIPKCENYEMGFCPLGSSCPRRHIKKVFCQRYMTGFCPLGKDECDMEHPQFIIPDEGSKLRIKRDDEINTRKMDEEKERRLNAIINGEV
T4 sequence (P45976 whole entry, chain 4 of 4): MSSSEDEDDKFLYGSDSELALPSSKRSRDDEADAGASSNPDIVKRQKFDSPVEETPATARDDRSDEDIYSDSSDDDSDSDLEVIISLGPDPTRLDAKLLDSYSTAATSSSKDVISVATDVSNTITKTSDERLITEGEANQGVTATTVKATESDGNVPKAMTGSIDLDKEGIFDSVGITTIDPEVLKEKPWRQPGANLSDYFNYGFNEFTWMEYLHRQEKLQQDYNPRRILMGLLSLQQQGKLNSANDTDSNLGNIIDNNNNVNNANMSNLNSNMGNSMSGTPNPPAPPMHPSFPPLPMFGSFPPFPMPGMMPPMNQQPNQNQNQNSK
The description is as above. Conditions: both partners purified.
For B1, the binding result was “binds”.

In another data set the target is T5, CPF_(core): Cft1-Pfs2_(-3C-SII)-Yth1_(-3C-8H)-Fip1-Pap1-Cft2-Ysh1-Mpe1 (S. cerevisiae, UniProt Q06632 1-1357; P42841 1-465; Q06102 1-208; P45976 1-327; P29468 1-568; Q12102 …).
T5 construct: Cft1, S. cerevisiae; Pfs2, S. cerevisiae; Yth1, S. cerevisiae; Fip1, S. cerevisiae; Pap1, S. cerevisiae; Cft2, S. cerevisiae; Ysh1, S. cerevisiae; Mpe1, S. cerevisiae; also called eight-subunit core cleavage and polyadenylation factor complex; source: Sf9, co-expressed from one multi-gene baculovirus construct, purified (StrepTactin, Mono Q, Superose 6); not shown: StrepII, C-terminal, kept; …
The description is as above. The following applies: both partners purified.
Take B1: the binding result is given as “binds”.
